Each block holds one binder with its values, some of them ahead of it.
What was measured:
ZTNF4 (BLyS/BAFF) [1] = molecular target: ZTNF4 (BLyS/BAFF) (human); assay: competition, 125I-ZTNF4 binding to TACI-coated plates
ZTNF4 (BLyS/BAFF) [2] = molecular target: ZTNF4 (BLyS/BAFF) (human); assay: other, solution radioligand binding with precipitation

B1: TACI (d1-29, d111-154)-Fc5 (protein)
chain: MDAMKRGLCCVLLLCGAVFVSLSQEIHAELRRFRRAMRSCPEEQYWDPLLGTCMSCKTICNHQSQRTCAAFCRSLSCRKEQGKFYDHLLRDCISCASICGQHPKQCAYFCENKLRSEPKSSDKTHTCPPCPAPEAEGAPSVFLFPPKPKDTLMISRTPEVTCVVVDVSHEDPEVKFNWYVDGVEVHNAKTKPREEQYNSTYRVVSVLTVLHQDWLNGKEYKCKVSNKALPSSIEKTISKAKGQPREPQVYTLPPSRDELTKNQVSLTCLVKGFYPSDIAVEWESNGQPENNYKTTPPVLDSDGSFFLYSKLTVDKSRWQQGNVFSCSVMHEALHNHYTQKSLSLSPGK
IC50 (ZTNF4 (BLyS/BAFF) [1]): 2.31 nM | Kd (ZTNF4 (BLyS/BAFF) [2]): 0.115 nM

B4: TACI (d1-29, d120-154)-Fc5 (protein)
chain: MDAMKRGLCCVLLLCGAVFVSLSQEIHAELRRFRRAMRSCPEEQYWDPLLGTCMSCKTICNHQSQRTCAAFCRSLSCRKEQGKFYDHLLRDCISCASICGQHPKQCAYFCENKLRSPVNLPPELREPKSSDKTHTCPPCPAPEAEGAPSVFLFPPKPKDTLMISRTPEVTCVVVDVSHEDPEVKFNWYVDGVEVHNAKTKPREEQYNSTYRVVSVLTVLHQDWLNGKEYKCKVSNKALPSSIEKTISKAKGQPREPQVYTLPPSRDELTKNQVSLTCLVKGFYPSDIAVEWESNGQPENNYKTTPPVLDSDGSFFLYSKLTVDKSRWQQGNVFSCSVMHEALHNHYTQKSLSLSPGK
IC50 (ZTNF4 (BLyS/BAFF) [1]): 2.21 nM | Kd (ZTNF4 (BLyS/BAFF) [2]): 0.092 nM

Further binders by falling IC50 (ZTNF4 (BLyS/BAFF) [1]), results first:

IC50 (ZTNF4 (BLyS/BAFF) [1]): 4.95 nM | Kd (ZTNF4 (BLyS/BAFF) [2]): 0.121 nM
B2: TACI (d1-29, d107-154)-Fc5 (protein)
chain: MDAMKRGLCCVLLLCGAVFVSLSQEIHAELRRFRRAMRSCPEEQYWDPLLGTCMSCKTICNHQSQRTCAAFCRSLSCRKEQGKFYDHLLRDCISCASICGQHPKQCAYFCENEPKSSDKTHTCPPCPAPEAEGAPSVFLFPPKPKDTLMISRTPEVTCVVVDVSHEDPEVKFNWYVDGVEVHNAKTKPREEQYNSTYRVVSVLTVLHQDWLNGKEYKCKVSNKALPSSIEKTISKAKGQPREPQVYTLPPSRDELTKNQVSLTCLVKGFYPSDIAVEWESNGQPENNYKTTPPVLDSDGSFFLYSKLTVDKSRWQQGNVFSCSVMHEALHNHYTQKSLSLSPGK

IC50 (ZTNF4 (BLyS/BAFF) [1]): 2.07 nM | Kd (ZTNF4 (BLyS/BAFF) [2]): 0.134 nM
B3: TACI (d1-29)-Fc5 (protein)
chain: MDAMKRGLCCVLLLCGAVFVSLSQEIHAELRRFRRAMRSCPEEQYWDPLLGTCMSCKTICNHQSQRTCAAFCRSLSCRKEQGKFYDHLLRDCISCASICGQHPKQCAYFCENKLRSPVNLPPELRRQRSGEVENNSDNSGRYQGLEHRGSEASPALPGLKEPKSSDKTHTCPPCPAPEAEGAPSVFLFPPKPKDTLMISRTPEVTCVVVDVSHEDPEVKFNWYVDGVEVHNAKTKPREEQYNSTYRVVSVLTVLHQDWLNGKEYKCKVSNKALPSSIEKTISKAKGQPREPQVYTLPPSRDELTKNQVSLTCLVKGFYPSDIAVEWESNGQPENNYKTTPPVLDSDGSFFLYSKLTVDKSRWQQGNVFSCSVMHEALHNHYTQKSLSLSPGK

Source: patent US20090209006 (published 2009)
